Results: publication PMC3020918

Target: YFP(N)-Sso1p (S. cerevisiae) (UniProt P32867)
Assay: split reporter

Sequence of UniProt P32867 (P32867 whole entry): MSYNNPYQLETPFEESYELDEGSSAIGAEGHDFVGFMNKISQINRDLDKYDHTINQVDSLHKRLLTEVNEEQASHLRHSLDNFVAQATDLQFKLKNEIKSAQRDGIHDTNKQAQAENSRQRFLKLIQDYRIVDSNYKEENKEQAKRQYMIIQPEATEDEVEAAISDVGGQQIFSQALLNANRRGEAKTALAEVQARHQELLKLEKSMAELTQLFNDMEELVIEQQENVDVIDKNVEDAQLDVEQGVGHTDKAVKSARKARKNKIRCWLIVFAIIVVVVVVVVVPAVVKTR

Substance: Sec1p(658–724)-YFP(C) (from UniProt P30619 658-724) (domain or fragment)
- percent stronger BiFC signal than Sec1p(658–724)-Sso2p: 22%
